# Test system: Escherichia coli TOP10
# Test: shrunken log2 fold change of peptide-encoding DNA abundance (4.5 h post-induction vs induction); higher = less antimicrobial activity (less host growth inhibition)
# Details: time post-induction: 4.5 h; library: site-saturation at positions 5, 18, 19, 20
# 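Note: peptides expressed intracellularly from a pBAD plasmid library in pooled LB shake-flask culture, induced with 0.3% L-arabinose, DNA abundance read by NGS, three biological replicates, DESeq2 with apeglm shrinkage.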
row,Sequence,shrunken log2 fold change
1,RRIRRRPPRLPRPRPRPIQKPRP,-0.218
2,RRIRCRPPRLPRPRPRPMKEPRP,-0.18
3,RRIRARPPRLPRPRPRPQRTPRP,0.11
4,RRIRYRPPRLPRPRPRPNLDPRP,-0.148
5,RRIRWRPPRLPRPRPRPHSLPRP,-0.262
6,RRIRRRPPRLPRPRPRPIIHPRP,-0.584
7,RRIRNRPPRLPRPRPRPDMVPRP,0.00433
8,RRIRKRPPRLPRPRPRPNTQPRP,-0.0781
9,RRIRHRPPRLPRPRPRPFNWPRP,-0.194
10,RRIRLRPPRLPRPRPRPRHIPRP,1.19
11,RRIRSRPPRLPRPRPRPWQAPRP,0.214
12,RRIRWRPPRLPRPRPRPQCKPRP,0.132
13,RRIRKRPPRLPRPRPRPTVHPRP,0.467
14,RRIRGRPPRLPRPRPRPYVQPRP,-0.122
15,RRIRERPPRLPRPRPRPHCSPRP,-0.279
16,RRIRNRPPRLPRPRPRPTMDPRP,-0.266
17,RRIRIRPPRLPRPRPRPFPGPRP,-0.155
18,RRIRLRPPRLPRPRPRPINAPRP,-0.177
19,RRIRIRPPRLPRPRPRPKMPPRP,0.0103
20,RRIRARPPRLPRPRPRPAHGPRP,0.694
21,RRIRIRPPRLPRPRPRPFEIPRP,-0.0373
22,RRIRARPPRLPRPRPRPVPSPRP,0.181
23,RRIRYRPPRLPRPRPRPLCWPRP,-0.264
24,RRIRSRPPRLPRPRPRPWYCPRP,0.017
25,RRIRKRPPRLPRPRPRPQHNPRP,-0.145

row,Sequence,shrunken log2 fold change
1,RRIRWRPPRLPRPRPRPGSWPRP,0.517
2,RRIRNRPPRLPRPRPRPCPEPRP,0.113
3,RRIRRRPPRLPRPRPRPVEDPRP,0.355
4,RRIRQRPPRLPRPRPRPDHTPRP,-0.0589
5,RRIRGRPPRLPRPRPRPHDAPRP,0.00554
6,RRIRIRPPRLPRPRPRPRYSPRP,-0.484
7,RRIRSRPPRLPRPRPRPDFWPRP,0.506
8,RRIRHRPPRLPRPRPRPIHPPRP,-0.154
9,RRIRMRPPRLPRPRPRPVENPRP,-0.0952
10,RRIRQRPPRLPRPRPRPWCTPRP,-0.244
11,RRIRSRPPRLPRPRPRPGNTPRP,-0.472
12,RRIRHRPPRLPRPRPRPTGAPRP,0.0132
13,RRIRARPPRLPRPRPRPMYYPRP,-0.433
14,RRIRDRPPRLPRPRPRPQNYPRP,-0.589
15,RRIRPRPPRLPRPRPRPGSPPRP,0.0761
16,RRIRCRPPRLPRPRPRPLIDPRP,-0.301
17,RRIRDRPPRLPRPRPRPPKRPRP,-0.0222
18,RRIRKRPPRLPRPRPRPYHSPRP,2.07
19,RRIRYRPPRLPRPRPRPIIHPRP,-1.21
20,RRIRLRPPRLPRPRPRPVTAPRP,0.213
21,RRIRDRPPRLPRPRPRPFVDPRP,0.063
22,RRIRWRPPRLPRPRPRPAMQPRP,0.298
23,RRIRVRPPRLPRPRPRPRSWPRP,0.325
24,RRIRVRPPRLPRPRPRPPRWPRP,0.812
25,RRIRVRPPRLPRPRPRPARYPRP,0.0291

row,Sequence,shrunken log2 fold change
1,RRIRGRPPRLPRPRPRPLDIPRP,-0.0476
2,RRIRYRPPRLPRPRPRPQCVPRP,-0.127
3,RRIRMRPPRLPRPRPRPYRMPRP,-0.219
4,RRIRTRPPRLPRPRPRPRCCPRP,0.0734
5,RRIRARPPRLPRPRPRPEGIPRP,0.0659
6,RRIRWRPPRLPRPRPRPCKWPRP,-0.275
7,RRIRHRPPRLPRPRPRPNWFPRP,-0.0203
8,RRIRERPPRLPRPRPRPFNLPRP,-0.233
9,RRIRHRPPRLPRPRPRPAGSPRP,-0.0875
10,RRIRLRPPRLPRPRPRPLGKPRP,-0.0194
11,RRIRWRPPRLPRPRPRPYYKPRP,-0.823
12,RRIRERPPRLPRPRPRPRAKPRP,0.192
13,RRIRSRPPRLPRPRPRPHSIPRP,-0.248
14,RRIRTRPPRLPRPRPRPSIHPRP,-0.561
15,RRIRKRPPRLPRPRPRPVMQPRP,0.041
16,RRIRFRPPRLPRPRPRPAAMPRP,1.58
17,RRIRKRPPRLPRPRPRPDMQPRP,-0.0618
18,RRIRGRPPRLPRPRPRPIWQPRP,0.349
19,RRIRVRPPRLPRPRPRPVMNPRP,-0.19
20,RRIRPRPPRLPRPRPRPDRSPRP,-0.1
21,RRIRERPPRLPRPRPRPFRKPRP,-0.534
22,RRIRKRPPRLPRPRPRPAHIPRP,-0.137
23,RRIRHRPPRLPRPRPRPKRPPRP,0.354
24,RRIRLRPPRLPRPRPRPFKVPRP,0.0321
25,RRIRCRPPRLPRPRPRPIFNPRP,-0.542

row,Sequence,shrunken log2 fold change
1,RRIRLRPPRLPRPRPRPECEPRP,0.147
2,RRIRLRPPRLPRPRPRPANYPRP,-0.032
3,RRIRTRPPRLPRPRPRPVYMPRP,-0.382
4,RRIRLRPPRLPRPRPRPRKKPRP,0.355
5,RRIRLRPPRLPRPRPRPPGEPRP,0.196
6,RRIRWRPPRLPRPRPRPEHWPRP,0.83
7,RRIRHRPPRLPRPRPRPTWRPRP,0.381
8,RRIRNRPPRLPRPRPRPASLPRP,0.0991
9,RRIRARPPRLPRPRPRPWWLPRP,-8.93e-05
10,RRIRHRPPRLPRPRPRPTSGPRP,-0.0493
11,RRIRYRPPRLPRPRPRPLHNPRP,-0.507
12,RRIRKRPPRLPRPRPRPIVGPRP,0.117
13,RRIRLRPPRLPRPRPRPIDKPRP,-0.122
14,RRIRVRPPRLPRPRPRPMWRPRP,0.127
15,RRIRTRPPRLPRPRPRPKCEPRP,0.118
16,RRIRQRPPRLPRPRPRPCKFPRP,-0.194
17,RRIRKRPPRLPRPRPRPTWVPRP,-0.105
18,RRIRARPPRLPRPRPRPAQMPRP,0.743
19,RRIRSRPPRLPRPRPRPLTFPRP,0.182
20,RRIRKRPPRLPRPRPRPQMEPRP,-0.0377
21,RRIRARPPRLPRPRPRPIIRPRP,-0.357
22,RRIRGRPPRLPRPRPRPYQFPRP,-0.297
23,RRIRNRPPRLPRPRPRPCYMPRP,0.0787
24,RRIRHRPPRLPRPRPRPNWKPRP,-0.0172
25,RRIRPRPPRLPRPRPRPNYGPRP,0.111

row,Sequence,shrunken log2 fold change
1,RRIRKRPPRLPRPRPRPFELPRP,-0.000946
2,RRIRFRPPRLPRPRPRPQKPPRP,0.121
3,RRIRRRPPRLPRPRPRPETMPRP,-0.0309
4,RRIRGRPPRLPRPRPRPESEPRP,2
5,RRIRGRPPRLPRPRPRPMSLPRP,-0.0288
6,RRIRQRPPRLPRPRPRPMESPRP,-0.0548
7,RRIRYRPPRLPRPRPRPSNTPRP,-1.06
8,RRIRTRPPRLPRPRPRPMQYPRP,-0.0442
9,RRIRPRPPRLPRPRPRPPHPPRP,0.292
10,RRIRARPPRLPRPRPRPWRKPRP,0.0387
11,RRIRHRPPRLPRPRPRPDCWPRP,0.0871
12,RRIRGRPPRLPRPRPRPELLPRP,0.334
13,RRIRMRPPRLPRPRPRPYTSPRP,-0.265
14,RRIRERPPRLPRPRPRPNYLPRP,-0.0974
15,RRIRDRPPRLPRPRPRPQWNPRP,-0.37
16,RRIRTRPPRLPRPRPRPHVYPRP,-0.496
17,RRIRNRPPRLPRPRPRPNLEPRP,0.0441
18,RRIRQRPPRLPRPRPRPLCWPRP,-0.0481
19,RRIRYRPPRLPRPRPRPRIAPRP,0.00898
20,RRIRLRPPRLPRPRPRPVGNPRP,0.0885
21,RRIRCRPPRLPRPRPRPVVTPRP,-0.0488
22,RRIRKRPPRLPRPRPRPEWNPRP,0.599
23,RRIRFRPPRLPRPRPRPDARPRP,-0.0768
24,RRIRVRPPRLPRPRPRPMSRPRP,0.0217
25,RRIRPRPPRLPRPRPRPCNNPRP,-0.177

row,Sequence,shrunken log2 fold change
1,RRIRFRPPRLPRPRPRPQCSPRP,0.0505
2,RRIRDRPPRLPRPRPRPCVFPRP,0.37
3,RRIRWRPPRLPRPRPRPQFRPRP,-0.0234
4,RRIRERPPRLPRPRPRPQEHPRP,-0.179
5,RRIRPRPPRLPRPRPRPANSPRP,0.00247
6,RRIRARPPRLPRPRPRPYCAPRP,-0.277
7,RRIRYRPPRLPRPRPRPPFQPRP,-0.22
8,RRIRERPPRLPRPRPRPSREPRP,0.125
9,RRIRERPPRLPRPRPRPLMMPRP,-0.263
10,RRIRHRPPRLPRPRPRPPYCPRP,-0.0539
11,RRIRQRPPRLPRPRPRPHCAPRP,0.0396
12,RRIRGRPPRLPRPRPRPRMFPRP,0.837
13,RRIRHRPPRLPRPRPRPNTEPRP,-0.038
14,RRIRRRPPRLPRPRPRPVPIPRP,0.137
15,RRIRARPPRLPRPRPRPSFGPRP,1.08
16,RRIRFRPPRLPRPRPRPQPEPRP,-0.119
17,RRIRMRPPRLPRPRPRPHNQPRP,0.177
18,RRIRYRPPRLPRPRPRPKSIPRP,-0.0776
19,RRIRFRPPRLPRPRPRPSITPRP,-0.262
20,RRIRDRPPRLPRPRPRPHLVPRP,-0.0562
21,RRIRVRPPRLPRPRPRPSEHPRP,-0.779
22,RRIRVRPPRLPRPRPRPREMPRP,0.0631
23,RRIRARPPRLPRPRPRPHESPRP,0.779
24,RRIRGRPPRLPRPRPRPFHVPRP,-0.0412
25,RRIRIRPPRLPRPRPRPLFQPRP,-0.394
